Source: patent US20100272750A1

biological target: HLA DRB1*0101 (human); assay: competition with 125I probe peptide, purified HLA; crude peptide batch

Binder | IC50 [nM]
LQAIELQLTLETIYN (modifications not checked) [HPV16.E2.070 HTL epitope] | 42

biological target: HLA DRB1*1201 (human); assay: as above

Binder | IC50 [nM]
LQAIELQLTLETIYN (modifications not checked) [HPV16.E2.070 HTL epitope] | 268

biological target: HLA DRB1*0901 (human); assay: as above

Binder | IC50 [nM]
LQAIELQLTLETIYN (modifications not checked) [HPV16.E2.070 HTL epitope] | 1430

biological target: HLA DRB1*1501 (human); assay: as above

Binder | IC50 [nM]
LQAIELQLTLETIYN (modifications not checked) [HPV16.E2.070 HTL epitope] | 688

biological target: HLA DRB1*0401 (human); assay: as above

Binder | IC50 [nM]
LQAIELQLTLETIYN (modifications not checked) [HPV16.E2.070 HTL epitope] | 37

biological target: HLA DRB4*0101 (human); assay: as above

Binder | IC50 [nM]
LQAIELQLTLETIYN (modifications not checked) [HPV16.E2.070 HTL epitope] | 2

biological target: HLA DRB1*0802 (human); assay: as above

Binder | IC50 [nM]
LQAIELQLTLETIYN (modifications not checked) [HPV16.E2.070 HTL epitope] | 7610

biological target: HLA DRB1*1101 (human); assay: as above

Binder | IC50 [nM]
LQAIELQLTLETIYN (modifications not checked) [HPV16.E2.070 HTL epitope] | 4380

biological target: HLA DRB1*0701 (human); assay: as above

Binder | IC50 [nM]
LQAIELQLTLETIYN (modifications not checked) [HPV16.E2.070 HTL epitope] | 3280

biological target: HLA DRB1*0405 (human); assay: as above

Binder | IC50 [nM]
LQAIELQLTLETIYN (modifications not checked) [HPV16.E2.070 HTL epitope] | 384

biological target: HLA DRB1*0404 (human); assay: as above

Binder | IC50 [nM]
LQAIELQLTLETIYN (modifications not checked) [HPV16.E2.070 HTL epitope] | 282

biological target: HLA DRB3*0101 (human); assay: competition with 125I probe peptide, purified HLA

Binder | IC50 [nM]
TGRCIACWRRPRTET (modifications not checked) [HPV31.E6.132 HTL epitope] | 5960

biological target: HLA DRB1*0101 (human); assay: competition with 125I probe peptide, purified HLA

Binder | IC50 [nM]
WKHMRLECAIYYKAR (modifications not checked) [HPV16.E2.033 HTL epitope] | 701
WKHIRLECVLMYKAR (modifications not checked) [HPV31.E2.033 HTL epitope] | 1440
NGWFYVEAVIDRQTG (modifications not checked) [HPV31.E1.15 HTL epitope] | 1860
TGRCIACWRRPRTET (modifications not checked) [HPV31.E6.132 HTL epitope] | 3170
FHSIAGQYRGQCNTC (modifications not checked) [HPV45.E6.127 HTL epitope] | 107
QRFHNIRGRWTGRCM (modifications not checked) [HPV16.E6.130 HTL epitope] | 36
DWVMAIFGVNPTVAEGF (modifications not checked) [HPV45.E1.228 HTL epitope] | 487

biological target: HLA DRB1*1201 (human); assay: competition with 125I probe peptide, purified HLA

Binder | IC50 [nM]
TGRCIACWRRPRTET (modifications not checked) [HPV31.E6.132 HTL epitope] | 4950
FHSIAGQYRGQCNTC (modifications not checked) [HPV45.E6.127 HTL epitope] | 10100
QRFHNIRGRWTGRCM (modifications not checked) [HPV16.E6.130 HTL epitope] | 14600

biological target: HLA DRB1*0901 (human); assay: competition with 125I probe peptide, purified HLA

Binder | IC50 [nM]
WKHMRLECAIYYKAR (modifications not checked) [HPV16.E2.033 HTL epitope] | 6340
WKHIRLECVLMYKAR (modifications not checked) [HPV31.E2.033 HTL epitope] | 11800
NGWFYVEAVIDRQTG (modifications not checked) [HPV31.E1.15 HTL epitope] | 3670
TGRCIACWRRPRTET (modifications not checked) [HPV31.E6.132 HTL epitope] | 13600
FHSIAGQYRGQCNTC (modifications not checked) [HPV45.E6.127 HTL epitope] | 1990
DWVMAIFGVNPTVAEGF (modifications not checked) [HPV45.E1.228 HTL epitope] | 17900

biological target: HLA DRB5*0101 (human); assay: competition with 125I probe peptide, purified HLA

Binder | IC50 [nM]
WKHMRLECAIYYKAR (modifications not checked) [HPV16.E2.033 HTL epitope] | 280
WKHIRLECVLMYKAR (modifications not checked) [HPV31.E2.033 HTL epitope] | 412
NGWFYVEAVIDRQTG (modifications not checked) [HPV31.E1.15 HTL epitope] | 1200
TGRCIACWRRPRTET (modifications not checked) [HPV31.E6.132 HTL epitope] | 6050
FHSIAGQYRGQCNTC (modifications not checked) [HPV45.E6.127 HTL epitope] | 43
QRFHNIRGRWTGRCM (modifications not checked) [HPV16.E6.130 HTL epitope] | 919
DWVMAIFGVNPTVAEGF (modifications not checked) [HPV45.E1.228 HTL epitope] | 387

biological target: HLA DRB1*1501 (human); assay: competition with 125I probe peptide, purified HLA

Binder | IC50 [nM]
WKHMRLECAIYYKAR (modifications not checked) [HPV16.E2.033 HTL epitope] | 1390
WKHIRLECVLMYKAR (modifications not checked) [HPV31.E2.033 HTL epitope] | 134
TGRCIACWRRPRTET (modifications not checked) [HPV31.E6.132 HTL epitope] | 84
FHSIAGQYRGQCNTC (modifications not checked) [HPV45.E6.127 HTL epitope] | 574
QRFHNIRGRWTGRCM (modifications not checked) [HPV16.E6.130 HTL epitope] | 17200
DWVMAIFGVNPTVAEGF (modifications not checked) [HPV45.E1.228 HTL epitope] | 108

biological target: HLA DRB1*1302 (human); assay: competition with 125I probe peptide, purified HLA

Binder | IC50 [nM]
WKHMRLECAIYYKAR (modifications not checked) [HPV16.E2.033 HTL epitope] | 248
WKHIRLECVLMYKAR (modifications not checked) [HPV31.E2.033 HTL epitope] | 54
TGRCIACWRRPRTET (modifications not checked) [HPV31.E6.132 HTL epitope] | 2770
QRFHNIRGRWTGRCM (modifications not checked) [HPV16.E6.130 HTL epitope] | 5310
DWVMAIFGVNPTVAEGF (modifications not checked) [HPV45.E1.228 HTL epitope] | 68

biological target: HLA DRB1*0401 (human); assay: competition with 125I probe peptide, purified HLA

Binder | IC50 [nM]
LDLQPETTDLYCYEQ (modifications not checked) [HPV16.E7.13 HTL epitope] | 1900
WKHMRLECAIYYKAR (modifications not checked) [HPV16.E2.033 HTL epitope] | 245
WKHIRLECVLMYKAR (modifications not checked) [HPV31.E2.033 HTL epitope] | 263
NGWFYVEAVIDRQTG (modifications not checked) [HPV31.E1.15 HTL epitope] | 845
TGRCIACWRRPRTET (modifications not checked) [HPV31.E6.132 HTL epitope] | 758
FHSIAGQYRGQCNTC (modifications not checked) [HPV45.E6.127 HTL epitope] | 8.6
QRFHNIRGRWTGRCM (modifications not checked) [HPV16.E6.130 HTL epitope] | 2900
DWVMAIFGVNPTVAEGF (modifications not checked) [HPV45.E1.228 HTL epitope] | 91

biological target: HLA DRB4*0101 (human); assay: competition with 125I probe peptide, purified HLA

Binder | IC50 [nM]
LDLQPETTDLYCYEQ (modifications not checked) [HPV16.E7.13 HTL epitope] | 17
WKHMRLECAIYYKAR (modifications not checked) [HPV16.E2.033 HTL epitope] | 766
WKHIRLECVLMYKAR (modifications not checked) [HPV31.E2.033 HTL epitope] | 102
NGWFYVEAVIDRQTG (modifications not checked) [HPV31.E1.15 HTL epitope] | 627
TGRCIACWRRPRTET (modifications not checked) [HPV31.E6.132 HTL epitope] | 225
FHSIAGQYRGQCNTC (modifications not checked) [HPV45.E6.127 HTL epitope] | 1300
QRFHNIRGRWTGRCM (modifications not checked) [HPV16.E6.130 HTL epitope] | 4550
DWVMAIFGVNPTVAEGF (modifications not checked) [HPV45.E1.228 HTL epitope] | 571

biological target: HLA DRB1*0802 (human); assay: competition with 125I probe peptide, purified HLA

Binder | IC50 [nM]
WKHMRLECAIYYKAR (modifications not checked) [HPV16.E2.033 HTL epitope] | 90
WKHIRLECVLMYKAR (modifications not checked) [HPV31.E2.033 HTL epitope] | 476
TGRCIACWRRPRTET (modifications not checked) [HPV31.E6.132 HTL epitope] | 512
FHSIAGQYRGQCNTC (modifications not checked) [HPV45.E6.127 HTL epitope] | 7640
QRFHNIRGRWTGRCM (modifications not checked) [HPV16.E6.130 HTL epitope] | 894
DWVMAIFGVNPTVAEGF (modifications not checked) [HPV45.E1.228 HTL epitope] | 4260

biological target: HLA DRB1*1101 (human); assay: competition with 125I probe peptide, purified HLA

Binder | IC50 [nM]
WKHMRLECAIYYKAR (modifications not checked) [HPV16.E2.033 HTL epitope] | 2400
WKHIRLECVLMYKAR (modifications not checked) [HPV31.E2.033 HTL epitope] | 81
TGRCIACWRRPRTET (modifications not checked) [HPV31.E6.132 HTL epitope] | 158
FHSIAGQYRGQCNTC (modifications not checked) [HPV45.E6.127 HTL epitope] | 416
QRFHNIRGRWTGRCM (modifications not checked) [HPV16.E6.130 HTL epitope] | 574
DWVMAIFGVNPTVAEGF (modifications not checked) [HPV45.E1.228 HTL epitope] | 4960

biological target: HLA DRB1*0701 (human); assay: competition with 125I probe peptide, purified HLA

Binder | IC50 [nM]
WKHMRLECAIYYKAR (modifications not checked) [HPV16.E2.033 HTL epitope] | 504
WKHIRLECVLMYKAR (modifications not checked) [HPV31.E2.033 HTL epitope] | 16400
NGWFYVEAVIDRQTG (modifications not checked) [HPV31.E1.15 HTL epitope] | 1460
TGRCIACWRRPRTET (modifications not checked) [HPV31.E6.132 HTL epitope] | 11500
FHSIAGQYRGQCNTC (modifications not checked) [HPV45.E6.127 HTL epitope] | 2400
QRFHNIRGRWTGRCM (modifications not checked) [HPV16.E6.130 HTL epitope] | 277
DWVMAIFGVNPTVAEGF (modifications not checked) [HPV45.E1.228 HTL epitope] | 52

biological target: HLA DRB1*0405 (human); assay: competition with 125I probe peptide, purified HLA

Binder | IC50 [nM]
WKHMRLECAIYYKAR (modifications not checked) [HPV16.E2.033 HTL epitope] | 557
WKHIRLECVLMYKAR (modifications not checked) [HPV31.E2.033 HTL epitope] | 71
NGWFYVEAVIDRQTG (modifications not checked) [HPV31.E1.15 HTL epitope] | 178
TGRCIACWRRPRTET (modifications not checked) [HPV31.E6.132 HTL epitope] | 733
FHSIAGQYRGQCNTC (modifications not checked) [HPV45.E6.127 HTL epitope] | 358
QRFHNIRGRWTGRCM (modifications not checked) [HPV16.E6.130 HTL epitope] | 4470
DWVMAIFGVNPTVAEGF (modifications not checked) [HPV45.E1.228 HTL epitope] | 92

biological target: HLA DRB1*0301 (human); assay: competition with 125I probe peptide, purified HLA

Binder | IC50 [nM]
LDLQPETTDLYCYEQ (modifications not checked) [HPV16.E7.13 HTL epitope] | 590
WKHMRLECAIYYKAR (modifications not checked) [HPV16.E2.033 HTL epitope] | 437
WKHIRLECVLMYKAR (modifications not checked) [HPV31.E2.033 HTL epitope] | 146
NGWFYVEAVIDRQTG (modifications not checked) [HPV31.E1.15 HTL epitope] | 2800
TGRCIACWRRPRTET (modifications not checked) [HPV31.E6.132 HTL epitope] | 1030
DWVMAIFGVNPTVAEGF (modifications not checked) [HPV45.E1.228 HTL epitope] | 3750

biological target: HLA DRB1*0404 (human); assay: competition with 125I probe peptide, purified HLA

Binder | IC50 [nM]
WKHMRLECAIYYKAR (modifications not checked) [HPV16.E2.033 HTL epitope] | 6860
WKHIRLECVLMYKAR (modifications not checked) [HPV31.E2.033 HTL epitope] | 307
NGWFYVEAVIDRQTG (modifications not checked) [HPV31.E1.15 HTL epitope] | 18800
TGRCIACWRRPRTET (modifications not checked) [HPV31.E6.132 HTL epitope] | 1150
FHSIAGQYRGQCNTC (modifications not checked) [HPV45.E6.127 HTL epitope] | 3300
QRFHNIRGRWTGRCM (modifications not checked) [HPV16.E6.130 HTL epitope] | 4110
DWVMAIFGVNPTVAEGF (modifications not checked) [HPV45.E1.228 HTL epitope] | 20
